Patent US20220204643A1 (published 2022)
Each block holds one binder with its values, some of them ahead of it.

How the values were obtained:
[1] = target: T1, endosome associated trafficking regulator 1, transcript variant 2 (human, UniProt Q96C92 59-435); assay: protein array
T1 construct: on protein array; also called SDCCAG3
T1 chain: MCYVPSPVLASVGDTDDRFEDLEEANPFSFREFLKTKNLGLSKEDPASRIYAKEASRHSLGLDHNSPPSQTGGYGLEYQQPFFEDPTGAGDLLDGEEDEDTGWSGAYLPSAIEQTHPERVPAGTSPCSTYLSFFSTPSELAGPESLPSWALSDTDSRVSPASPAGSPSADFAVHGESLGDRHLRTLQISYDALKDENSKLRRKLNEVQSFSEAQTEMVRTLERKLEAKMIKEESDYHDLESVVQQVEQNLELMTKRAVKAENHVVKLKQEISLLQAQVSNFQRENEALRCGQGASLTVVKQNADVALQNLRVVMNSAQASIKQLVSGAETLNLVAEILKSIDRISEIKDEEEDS

[2] = target: T2, charged multivesicular body protein 4B (human, UniProt Q9H444 2-224); assay: protein array
T2 construct: on protein array; also called CHMP4B
T2 sequence: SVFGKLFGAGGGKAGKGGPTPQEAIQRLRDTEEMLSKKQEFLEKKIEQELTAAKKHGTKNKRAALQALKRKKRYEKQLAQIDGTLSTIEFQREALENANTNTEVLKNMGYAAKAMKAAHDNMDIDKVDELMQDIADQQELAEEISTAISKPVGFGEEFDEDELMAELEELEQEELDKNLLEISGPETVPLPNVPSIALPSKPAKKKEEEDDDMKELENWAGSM

[3] = target: T3, Rna polymerase iii subunit g (human, UniProt O15318 1-223)
T3 construct: also called POLR3G
T3 sequence: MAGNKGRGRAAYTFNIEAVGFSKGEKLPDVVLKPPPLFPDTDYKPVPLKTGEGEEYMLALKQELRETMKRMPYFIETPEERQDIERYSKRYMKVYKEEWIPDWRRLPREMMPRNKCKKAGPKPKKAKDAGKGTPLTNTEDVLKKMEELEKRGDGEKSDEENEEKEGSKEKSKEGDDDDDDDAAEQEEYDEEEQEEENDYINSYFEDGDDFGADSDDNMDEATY

[4] = target: T4, sorting nexin 1, transcript variant 1 (human, UniProt Q13596 1-522)
T4 construct: also called SNX1

[5] = target: CRK like proto-oncogene, adaptor protein, transcript variant 1 (human, UniProt P46109 1-303)
[6] = target: T5, HEAT repeat containing 3, transcript variant 1 (human, UniProt Q7Z4Q2 1-680)
T5 construct: also called HEATR3
T5 sequence: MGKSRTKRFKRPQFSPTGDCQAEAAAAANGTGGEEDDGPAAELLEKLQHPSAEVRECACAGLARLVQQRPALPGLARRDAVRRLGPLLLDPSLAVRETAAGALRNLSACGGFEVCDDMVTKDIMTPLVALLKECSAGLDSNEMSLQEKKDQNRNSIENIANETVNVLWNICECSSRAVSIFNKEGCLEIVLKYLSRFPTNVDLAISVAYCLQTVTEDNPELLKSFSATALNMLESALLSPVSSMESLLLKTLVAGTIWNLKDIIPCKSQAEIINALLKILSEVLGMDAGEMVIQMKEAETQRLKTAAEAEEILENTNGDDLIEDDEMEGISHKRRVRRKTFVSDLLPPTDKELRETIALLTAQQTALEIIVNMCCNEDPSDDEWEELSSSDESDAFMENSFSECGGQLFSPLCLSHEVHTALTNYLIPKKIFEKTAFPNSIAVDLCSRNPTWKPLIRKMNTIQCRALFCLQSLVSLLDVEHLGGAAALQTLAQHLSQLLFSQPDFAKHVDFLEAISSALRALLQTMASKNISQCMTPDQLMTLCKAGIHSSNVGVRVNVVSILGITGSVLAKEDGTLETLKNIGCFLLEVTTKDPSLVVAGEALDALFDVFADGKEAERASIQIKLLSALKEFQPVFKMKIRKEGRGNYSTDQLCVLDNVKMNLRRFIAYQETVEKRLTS

[7] = target: T6, grancalcin, transcript variant 4 (human, UniProt P28676 1-217)
T6 construct: also called GCA
T6 sequence: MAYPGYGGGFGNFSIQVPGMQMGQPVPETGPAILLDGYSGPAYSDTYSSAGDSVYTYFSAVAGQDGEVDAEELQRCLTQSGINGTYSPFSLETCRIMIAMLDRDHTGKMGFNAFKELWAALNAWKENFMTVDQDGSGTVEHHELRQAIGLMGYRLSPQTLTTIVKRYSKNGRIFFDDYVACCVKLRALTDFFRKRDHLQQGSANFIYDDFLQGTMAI

Deoxyhypusine synthase = target: T7, Deoxyhypusine synthase (human, UniProt P49366 1-369)
T7 construct: also called DHPS
T7 sequence: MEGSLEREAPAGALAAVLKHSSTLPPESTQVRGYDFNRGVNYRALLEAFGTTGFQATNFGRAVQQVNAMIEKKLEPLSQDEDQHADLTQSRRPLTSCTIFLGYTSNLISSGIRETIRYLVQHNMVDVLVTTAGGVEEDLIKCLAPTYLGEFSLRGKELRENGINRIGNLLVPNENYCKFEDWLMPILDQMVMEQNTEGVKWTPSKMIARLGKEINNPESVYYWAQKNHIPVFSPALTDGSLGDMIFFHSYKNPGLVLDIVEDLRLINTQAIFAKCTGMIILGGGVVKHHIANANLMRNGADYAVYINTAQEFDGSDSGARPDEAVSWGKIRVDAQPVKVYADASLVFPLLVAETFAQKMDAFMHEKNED

DEAD-box helicase 53 = target: T8, DEAD-box helicase 53 (human, UniProt Q86TM3 1-631)
T8 construct: also called DDX53

[8] = target: T9, Vezatin, adherens junctions transmembrane protein (human, UniProt Q9HBM0 56-779 at identity 0.99), limits assumed)
T9 construct: also called VEZT
T9 chain: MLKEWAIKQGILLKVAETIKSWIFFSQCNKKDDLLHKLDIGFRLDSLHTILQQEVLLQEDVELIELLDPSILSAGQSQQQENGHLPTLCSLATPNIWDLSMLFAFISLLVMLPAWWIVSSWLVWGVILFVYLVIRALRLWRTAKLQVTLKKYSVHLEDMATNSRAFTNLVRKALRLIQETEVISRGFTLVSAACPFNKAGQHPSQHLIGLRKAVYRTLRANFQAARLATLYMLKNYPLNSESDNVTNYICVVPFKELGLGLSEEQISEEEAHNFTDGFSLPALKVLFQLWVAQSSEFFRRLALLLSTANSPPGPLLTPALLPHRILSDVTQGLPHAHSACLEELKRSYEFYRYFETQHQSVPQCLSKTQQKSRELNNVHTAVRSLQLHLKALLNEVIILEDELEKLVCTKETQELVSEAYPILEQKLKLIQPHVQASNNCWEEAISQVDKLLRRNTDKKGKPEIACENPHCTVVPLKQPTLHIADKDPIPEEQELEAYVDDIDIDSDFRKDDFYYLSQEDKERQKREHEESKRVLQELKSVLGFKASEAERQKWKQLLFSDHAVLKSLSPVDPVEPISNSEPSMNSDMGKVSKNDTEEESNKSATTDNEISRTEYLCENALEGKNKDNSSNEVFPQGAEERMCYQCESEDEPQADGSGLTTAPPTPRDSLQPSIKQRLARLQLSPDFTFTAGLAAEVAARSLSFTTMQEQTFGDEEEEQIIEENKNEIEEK

[9] = target: T10, nudix hydrolase 22, transcript variant 2 (human, UniProt Q9BRQ3 1-303)
T10 construct: also called NUDT22
T10 chain: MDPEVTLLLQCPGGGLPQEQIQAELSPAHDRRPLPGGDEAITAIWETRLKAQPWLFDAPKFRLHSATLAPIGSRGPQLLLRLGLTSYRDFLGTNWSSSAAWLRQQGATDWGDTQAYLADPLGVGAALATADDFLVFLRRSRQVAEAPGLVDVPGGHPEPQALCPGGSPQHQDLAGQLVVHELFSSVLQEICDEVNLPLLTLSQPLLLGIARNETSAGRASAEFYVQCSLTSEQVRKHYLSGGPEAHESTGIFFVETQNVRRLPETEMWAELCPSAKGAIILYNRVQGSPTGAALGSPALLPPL

T8 sequence (Q86TM3 other isoform, or with tags, fused parts or gaps limits assumed): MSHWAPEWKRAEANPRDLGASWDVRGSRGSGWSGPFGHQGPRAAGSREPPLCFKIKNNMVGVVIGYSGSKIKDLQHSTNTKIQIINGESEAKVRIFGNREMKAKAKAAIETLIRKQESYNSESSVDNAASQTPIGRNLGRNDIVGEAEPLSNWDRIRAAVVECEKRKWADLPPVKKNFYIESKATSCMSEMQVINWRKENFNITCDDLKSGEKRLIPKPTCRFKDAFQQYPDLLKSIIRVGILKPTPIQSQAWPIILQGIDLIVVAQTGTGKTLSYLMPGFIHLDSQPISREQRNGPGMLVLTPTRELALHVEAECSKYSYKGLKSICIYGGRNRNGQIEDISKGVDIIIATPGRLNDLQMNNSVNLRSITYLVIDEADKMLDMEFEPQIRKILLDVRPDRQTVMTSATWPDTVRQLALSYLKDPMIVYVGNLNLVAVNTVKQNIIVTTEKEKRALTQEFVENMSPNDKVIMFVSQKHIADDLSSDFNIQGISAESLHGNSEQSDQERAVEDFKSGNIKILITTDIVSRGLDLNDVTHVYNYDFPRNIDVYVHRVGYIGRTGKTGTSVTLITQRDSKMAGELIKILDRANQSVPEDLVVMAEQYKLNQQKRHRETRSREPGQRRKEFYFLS
T4 sequence (Q13596 whole entry, change not shown): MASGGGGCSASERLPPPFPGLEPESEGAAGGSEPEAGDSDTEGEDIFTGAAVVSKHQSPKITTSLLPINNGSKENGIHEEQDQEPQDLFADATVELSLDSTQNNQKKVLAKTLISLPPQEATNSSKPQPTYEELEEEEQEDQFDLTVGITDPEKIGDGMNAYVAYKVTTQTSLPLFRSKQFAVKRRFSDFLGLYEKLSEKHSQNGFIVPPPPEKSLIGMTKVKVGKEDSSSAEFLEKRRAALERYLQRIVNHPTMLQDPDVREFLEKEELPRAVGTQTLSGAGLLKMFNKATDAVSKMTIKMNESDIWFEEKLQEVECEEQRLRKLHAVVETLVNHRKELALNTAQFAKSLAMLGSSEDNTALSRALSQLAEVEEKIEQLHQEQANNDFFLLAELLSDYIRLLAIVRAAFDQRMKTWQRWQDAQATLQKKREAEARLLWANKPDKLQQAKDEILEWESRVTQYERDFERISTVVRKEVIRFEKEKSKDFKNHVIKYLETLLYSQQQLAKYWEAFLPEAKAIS
Sequence of CRK like proto-oncogene, adaptor protein, transcript variant 1 (P46109 whole entry, change not shown): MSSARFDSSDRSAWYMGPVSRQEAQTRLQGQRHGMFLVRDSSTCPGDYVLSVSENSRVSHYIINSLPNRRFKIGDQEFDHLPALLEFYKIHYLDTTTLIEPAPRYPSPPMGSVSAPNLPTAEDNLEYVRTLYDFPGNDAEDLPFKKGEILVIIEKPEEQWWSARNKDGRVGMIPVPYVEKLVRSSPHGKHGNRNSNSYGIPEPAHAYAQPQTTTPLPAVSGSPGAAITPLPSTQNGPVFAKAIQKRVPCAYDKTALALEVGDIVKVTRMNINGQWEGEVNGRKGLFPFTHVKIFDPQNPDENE

B1: TBRE1034 (antibody, V domains shown)
VH: QVQLVESGGGLVEPGGSLRLSCAASGFTFSDYYMSWIRQAPGKRLEWISHMSSGGNRRHYADSVRGRFTISRDNAKNSLYLQMNSMRADDTAVYYCARDKRSGMTSDRRIDYWGQGTRVTVSS
VL: DIQMTQSPSSLSASVGDRITITCRASQSVGTYLSWFQQKPGKAPKLLIYAASSLQSGVPSRFSGSGSGTDFTLTISSLQPEDFATYFCQQSYSVPPWTFGQGTKVEIKR
notes: VH/VL only
binding result [1]: binds
binding result [2]: binds

B3: TPAN1004 (antibody, V domains shown)
VH: QIQLVQSGAEVKKPGASVKVSCKTSGYTFTHYGVAWVRQAPGQGPEWMGWISPYNGNIEYGQKFQGRVTMTTDTSTNTAYMELRSLRYDDTAVYYCARDLDEINSSWLDPWGQGTLIIVSP
VL: EIVLTQSPATLSLSPGERATLSCRASQSVSSNYLAWYQQKPGQAPRLLIHGASSRATGFPDRFSGSGSGTDFTLTINRLEPEDFAVYYCQQYGTSPQTFGQGTKVEIKR
binding result [4]: binds

B4: TPAN1006 (antibody, V domains shown)
VH: QVQLVQSGAEVKKPGASVKLSCKPSGYTFSSYYIHWLRQAPGQGLEWMGIINPSGGYTSSAQKFQGRVTMTRDTSTSTIYMELSSLRAEDTAVYYCARRGEVGTMVRVFRKPFDYWGQGTLVTVSS
VL: QSVLTQPPSVSGAPGQRVTISCTGSSSNIGAQYDVHWYKVIPGTAPKLLIYGNDNRPSGVPDRFSGSKSGTSASLAITGLQSEDEADYYCQSNDISLSGSVVFGGGTKLTVLG
binding result [5]: binds

B5: TOVA1004 (antibody, V domains shown)
VH: EVQLVESGGGLVKPGGSLRLSCAASGFTFSSYSMNWVRQAPGKGLEWVSSISSSSSYIYYADSVKGRFTISRDNAKNSLYLQMNSLRAEDTAVYYCARDRGVVVVAATPYYYGMDVWGQGTTVTVSS
VL: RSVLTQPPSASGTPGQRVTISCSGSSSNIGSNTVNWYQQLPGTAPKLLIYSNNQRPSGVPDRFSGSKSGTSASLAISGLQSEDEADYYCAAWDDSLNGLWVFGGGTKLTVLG
binding result [6]: binds

B6: TPAN1001 (antibody, V domains shown)
VH: QVQLVQSGAEVKKPGSSVKVSCKASRGTFSNHAVSWVRQAPGQGLEWVGGIIPVFGPPNYAQKFRGRVTITADRSTNTAYMELNSLRSEDTAVYYCARTQWGTDVEATNPYYYFMDVWGKGTTVTVSS
VL: EIVLTQSPGTLSLSPGHRATLSCRASQDVASTYLAWYQQKPGQAPRLLIYGASSRATGIPDRFSGSGSGTDFTLTISRLEPEDFAVFYCQYYGGSPGFTFGPGTKVDFKR
binding result [7]: binds

B9: TOVA1007 (antibody, V domains shown)
VH: PVQLQESGPGLVNPSQTLSLTCTVSGGSISSGGYCWSWVRQHPGKGLEWIGCIYYIGTTYYMRSLKSRLIISIDTSKNQFSLKLTSVTAADSAVYYCARGGELLGGFGYSGMDVWGQGTTVTVSS
VL: not shown
binding result [9]: binds

Next, values leading:

binding result [3]: binds
B2: TPAN1003 (antibody, V domains shown)
VH: QVQLVQSGAEVKKPGASVKISCQAFGYNFIDNAIHWVRQAPGQRPEWMGWINAGNGNTRYSQNFQGRVTITKVTSASTAYMEMSRLKSEDTAVYFCARSSKWTDWHFDYWGQGTLVTVSS
VL: EIVLTQSPGTLSLSPGETATLSCRASQSVANNYLAWHQQKPGQAPRLLIYGASKRAAGIPDRFSGSGSGTEFTLTISRLEPEDCAVYYCQEYVKSPGFAFGPGTRVDIKR

binding result (Deoxyhypusine synthase): binds
B7: TOVA1003 (antibody)
VH: GEQLLESGGGLVQPGGSLRLSCAASGFTFSHYAMTWVRQAPGKGLEWVSGVSGSGFTTYYADSVKGRFTISRDNAQNTLYLHMNSLRAEDTAIYYCVKDLEVSIGHNFDFWGQGTLVTVSSASTKGPSVFPLAPSSKSTSGGTAALGCLVKDYFPEPVTVSWNSGALTSGVHTFPAVLQSSGLYSLSSVVTVPSSSLGTQTYICNVNHKPSNTKVDKRV
VL: EVQMTQSPSSLSASVGDRVTITCRASQHIAGRLNWYQQKPGKAPKLLIHSASSVQREVPSRFGGSGFGTDFTLTIYSLQAEDFATYFCQQSYYTPPTFAGGTRVDLKRTVAAPSVFIFPPSDEQLKSGTASVVCLLNNFYPREAKVQWKVDNALQSGNSQESVTEQDSKDSTYSLSSTLTLSKADYEKHKVYACEVTHQGLSSPVTKSFNRGEC

binding result (DEAD-box helicase 53): binds
binding result [8]: binds
B8: TOVA1005 (antibody, V domains shown)
VH: QITLKESGPTLVKPTQTLTLTCTFSGFSLSTNGVGVGWIRQPPGKALEWLALINWDDDKRYSPSLKSRLTITKDTSKNQVVLTMTNLDPVDTATYYCVHARDDYGDSAWSTGPVWGQGTLVTVSS
VL: DFLLTQPHSVSESPGKTVTISCTRSSGSIASNYVQWYQQRPGSSPSTVIYEDHQRPSGVPGRFSGSIDSSSNSASLTISGLKTEDEADYFCQSSDSNNHVVFGGGTKLTVLG
